The results in this text go back to patent US20210115121A1.

Assay in all cases: cell-based or functional assay
Assay [1] has as its target Tau from human progressive supranuclear palsy brain (human) (UniProt P10636).
Assay [2] addresses human Tau P301S from brain of P301S Tau transgenic mice (human) (UniProt P10636).
For assay [3], the target named is human Tau P301L from brain of P301L Tau transgenic mice (human) (UniProt P10636).
Assay [4] deals with Tau from human frontotemporal dementia brain (human) (UniProt P10636).
Tau from human frontotemporal dementia brain (human), sequence (P10636 other isoform, or with tags, fused parts or gaps limits assumed): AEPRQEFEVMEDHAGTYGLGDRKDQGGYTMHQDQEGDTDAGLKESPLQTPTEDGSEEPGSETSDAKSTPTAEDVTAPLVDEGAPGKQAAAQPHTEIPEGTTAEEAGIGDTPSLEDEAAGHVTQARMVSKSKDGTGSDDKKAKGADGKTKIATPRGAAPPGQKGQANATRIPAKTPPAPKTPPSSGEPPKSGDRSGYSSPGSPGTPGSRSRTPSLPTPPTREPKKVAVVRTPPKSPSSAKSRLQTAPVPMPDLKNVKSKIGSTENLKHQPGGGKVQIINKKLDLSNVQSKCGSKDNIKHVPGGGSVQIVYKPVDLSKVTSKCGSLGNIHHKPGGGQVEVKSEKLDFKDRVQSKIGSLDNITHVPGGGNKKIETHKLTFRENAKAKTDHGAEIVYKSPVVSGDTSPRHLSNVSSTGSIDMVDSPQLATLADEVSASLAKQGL
The target of assay [5] is Tau from human Alzheimer's disease brain (isolated Tau PHF fibrils from Alzheimer's disease patients) (human) (UniProt P10636).
Tau from human Alzheimer's disease brain (isolated Tau PHF fibrils from Alzheimer's disease patients) (human), sequence (P10636 other isoform, or with tags, fused parts or gaps limits assumed): as above

human Tau P301L from brain of P301L Tau transgenic mice (human), sequence (P10636 other isoform, or with tags, fused parts or gaps P301L P301L P301L P301L limits assumed): as the sequence (P10636 other isoform, or with tags, fused parts or gaps limits assumed) above, with P300L counted along it
human Tau P301S from brain of P301S Tau transgenic mice (human), sequence (P10636 other isoform, or with tags, fused parts or gaps P301S P301S P301S P301S): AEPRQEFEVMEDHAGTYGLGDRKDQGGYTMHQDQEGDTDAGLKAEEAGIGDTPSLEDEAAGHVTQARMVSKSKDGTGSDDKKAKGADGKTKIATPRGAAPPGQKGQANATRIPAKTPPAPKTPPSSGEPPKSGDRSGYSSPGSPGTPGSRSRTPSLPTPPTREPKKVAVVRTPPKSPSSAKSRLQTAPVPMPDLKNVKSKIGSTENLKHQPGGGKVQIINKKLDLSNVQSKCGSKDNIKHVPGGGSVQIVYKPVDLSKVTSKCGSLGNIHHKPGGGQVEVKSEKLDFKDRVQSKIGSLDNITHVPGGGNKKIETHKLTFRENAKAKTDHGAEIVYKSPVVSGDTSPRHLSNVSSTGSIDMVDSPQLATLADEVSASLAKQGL
IPN002 of WO2014/028777A2 (antibody), sequence (VH): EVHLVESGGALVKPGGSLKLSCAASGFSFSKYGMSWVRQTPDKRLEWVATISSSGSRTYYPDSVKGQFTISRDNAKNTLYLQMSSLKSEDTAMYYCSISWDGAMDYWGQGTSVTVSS
IPN002 of WO2014/028777A2 (antibody), sequence (VL): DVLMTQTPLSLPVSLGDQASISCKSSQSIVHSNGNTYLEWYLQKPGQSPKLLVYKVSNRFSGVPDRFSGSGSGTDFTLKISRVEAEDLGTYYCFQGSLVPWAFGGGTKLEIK
HJ8.5 of WO 2014/008404 (antibody), sequence (VH): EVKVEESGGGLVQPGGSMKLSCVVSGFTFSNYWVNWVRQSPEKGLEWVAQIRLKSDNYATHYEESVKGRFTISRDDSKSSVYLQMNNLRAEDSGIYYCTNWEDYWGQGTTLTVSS
HJ8.5 of WO 2014/008404 (antibody), sequence (VL): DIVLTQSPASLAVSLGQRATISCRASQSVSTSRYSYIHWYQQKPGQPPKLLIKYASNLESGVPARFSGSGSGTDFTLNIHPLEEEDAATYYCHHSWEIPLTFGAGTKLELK
Tau from human progressive supranuclear palsy brain (human), sequence (P10636 other isoform, or with tags, fused parts or gaps limits assumed): as the sequence (P10636 other isoform, or with tags, fused parts or gaps limits assumed) above

Turning to IPN002 of WO2014/028777A2 (antibody), the IC50 (cellular Tau aggregation assay) in assay [1] turned out to be 207 nM; in assay [3] it was 122 nM. Moreover, the Imax (maximal efficacy at 300 nM, cellular Tau aggregation assay) came to 64% in assay [1]; 22% in assay [2]; 73% in assay [3]; 50% in assay [4]; 19% in assay [5].

On to HJ8.5 of WO 2014/008404 (antibody), for which the IC50 (cellular Tau aggregation assay) in assay [1] came out at 73 nM. Also, the Imax (maximal efficacy at 300 nM, cellular Tau aggregation assay) stood at 79% in assay [1], 43% in assay [2], 67% in assay [4] and 46% in assay [5].

PT3 of WO2013/096380A2 (antibody): the IC50 (cellular Tau aggregation assay) worked out at 47 nM in assay [1]; 350 nM in assay [2]; 26 nM in assay [3]; 1 nM in assay [4]; 32 nM in assay [5]. Moreover, the Imax (maximal efficacy at 300 nM, cellular Tau aggregation assay) in assay [1] is 55%; in assay [2], 56%; in assay [3], 69%; in assay [4] it was 80%; in assay [5], 69%.
